Experimental data reported in patent US20090130192A1 (UNIVERSITY OF MANCHESTER, published 2009).
Each block holds one binder with its values, some of them ahead of it.

Assays:
[1] = target: T1, full-length recombinant opticin (bovine (stated in Example 6 only; not …, UniProt P58874 20-321); experiment: solid-phase binding assay, receptor coated at 2 µg/ml, opticin titrated, detected with opticin-specific antibody; apparent Kd
T1 construct: mature; also called recombinant bovine opticin; class III SLRP opticin
T1 sequence (looked up): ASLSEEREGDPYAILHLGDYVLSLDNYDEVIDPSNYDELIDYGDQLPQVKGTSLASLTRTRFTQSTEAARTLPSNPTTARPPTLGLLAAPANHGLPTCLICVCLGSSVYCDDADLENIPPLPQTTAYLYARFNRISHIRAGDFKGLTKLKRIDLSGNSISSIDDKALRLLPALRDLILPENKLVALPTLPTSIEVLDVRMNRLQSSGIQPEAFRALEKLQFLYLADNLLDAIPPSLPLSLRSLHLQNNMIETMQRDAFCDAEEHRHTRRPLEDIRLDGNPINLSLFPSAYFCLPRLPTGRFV

[2] = target: basic fibroblast growth factor (FGF-2); experiment: cell-based or functional assay
[3] = target: vascular endothelial growth factor (VEGF), isoform not stated; experiment: cell-based or functional assay
[4] = target: basic fibroblast growth factor (FGF-2); experiment: solid-phase binding assay, growth factor coated at 2 µg/ml, opticin titrated, detected with opticin-specific antibody; apparent Kd
VEGF164 = experiment: as above

Chain of basic fibroblast growth factor (FGF-2) (P09038 143-288): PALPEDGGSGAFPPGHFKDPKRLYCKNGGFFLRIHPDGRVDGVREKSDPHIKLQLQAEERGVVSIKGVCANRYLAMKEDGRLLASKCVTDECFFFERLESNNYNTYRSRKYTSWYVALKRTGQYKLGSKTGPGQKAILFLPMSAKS

Kd [1]: 21 nM
B1: VEGF-R1, soluble extracellular domain (receptor)
chain: SKLKDPELSLKGTQHIMQAGQTLHLQCRGEAAHKWSLPEMVSKESERLSITKSACGRNGKQFCSTLTLNTAQANHTGFYSCKYLAVPTSKKKETESAIYIFISDTGRPFVEMYSEIPEIIHMTEGRELVIPCRVTSPNITVTLKKFPLDTLIPDGKRIIWDSRKGFIISNATYKEIGLLTCEATVNGHLYKTNYLTHRQTNTIIDVQISTPRPVKLLRGHTLVLNCTATTPLNTRVQMTWSYPDEKNKRASVRRRIDQSNSHANIFYSVLTIDKMQNKDKGLYTCRVRSGPSFKSVNTSVHIYDKAFITVKHRKQQVLETVAGKRSYRLSMKVKAFPSPEVVWLKDGLPATEKSARYLTRGYSLIIKDVTEEDAGNYTILLSIKQSNVFKNLTATLIVNVKPQIYEKAVSSFPDPALYPLGSRQILTCTAYGIPQPTIKWFWHPCNHNHSEARCDFCSNNEESFILDADSNMGNRIESITQRMAIIEGKNKMASTLVVADSRISGIYICIASNKVGTVGRNISFYITDVPNGFHVNLEKMPTEGEDLKLSCTVNKFLYRDVTWILLRTVNNRTMHYSISKQKMAITKEHSITLNLTIMNVSLQDSGTYACRARNVYTGEEILQKKEITIRDQEAPYLLRNLSDHTVAISSSTTLDCHANGVPEPQITWFKNNHKIQQEPGIILGPGSSTLFIERVTEEDEGVYHCKATNQKGSVESSAYLTVQGTSDKSNLE

inhibition of FGF-2 induced BAEC proliferation [2]: > 95% | reduction of FGF-2-induced BAEC migration, 10 µg/ml opticin [2]: 86% | reduction of FGF-2-induced BAEC sprouting [2]: 73% | inhibition of VEGF induced BAEC proliferation [3]: > 90% | reduction of VEGF-induced BAEC migration, 10 µg/ml opticin [3]: 53% | reduction of VEGF-induced BAEC sprouting [3]: 70% | Kd [4]: 34 nM | Kd (VEGF164): 42 nM
B2: full-length recombinant opticin (protein, UniProt P58874 20-321, looked up)
chain: T1 sequence (looked up)
